Drawing on article PMC4707092 (Journal of immunology (Baltimore, Md. : 1950), 2015), this text covers Kd for two molecules.

The assay concerns the target C3b (UniProt P01024 749-1663, most molecules attached to the chip surface via the thioester group). The assay is described as follows: SPR.

B1: midiFH (other)
chain: AGEDCNELPPRRNTEILTGSWSDQTYPEGTQAIYKCRPGYRSLGNVIMVCRKGEWVALNPLRKCQKRPCGHPGDTPFGTFTLTGGNVFEYGVKAVYTCNEGYQLLGEINYRECDTDGWTNDIPICEVVKCLPVTAPENGKIVSSAMEPDREYHFGQAVRFVCNSGYKIEGDEEMHCSDDGFWSKEKPKCVEISCKSPDVINGSPISQKIIYKENERFQYKCNMGYEYSERGDAVCTESGWRPLPSCEEGKCGPPPPIDNGDITSFPLSVYAPASSVEYQCQNLYQLEGNKRITCRNGQWSEPPKCLHPCVISREIMENYNIALRWTAKQKLYSRTGESVEFVCKRGYRLSSRSHTLRTTCWDGKLEYPTCAKREDCNELPPRRNTEILTGSWSDQTYPEGTQAIYKCRPGYRSLGNVIMVCRKGEWVALNPLRKCQKRPCGHPGDTPFGTFTLTGGNVFEYGVKAVYTCNEGYQLLGEINYRECDTDGWTNDIPICEVVKCLPVTAPENGKIVSSAMEPDREYHFGQAVRFVCNSGYKIEGDEEMHCSDDGFWSKEKPKCVEISCKSPDVINGSPISQKIIYKENERFQYKCNMGYEYSERGDAVCTESGWRPLPSCEEGKCGPPPPIDNGDITSFPLSVYAPASSVEYQCQNLYQLEGNKRITCRNGQWSEPPKCLHPCVISREIMENYNIALRWTAKQKLYSRTGESVEFVCKRGYRLSSRSHTLRTTCWDGKLEYPTCAKR
For orientation: Kd means the concentration at which binding is half-saturated. A high value points to lower affinity. For B1, the affinity, expressed as Kd, was 27 nM.

B2: miniFH (other)
chain: AGEDCNELPPRRNTEILTGSWSDQTYPEGTQAIYKCRPGYRSLGNVIMVCRKGEWVALNPLRKCQKRPCGHPGDTPFGTFTLTGGNVFEYGVKAVYTCNEGYQLLGEINYRECDTDGWTNDIPICEVVKCLPVTAPENGKIVSSAMEPDREYHFGQAVRFVCNSGYKIEGDEEMHCSDDGFWSKEKPKCVEISCKSPDVINGSPISQKIIYKENERFQYKCNMGYEYSERGDAVCTESGWRPLPSCEEGKCGPPPPIDNGDITSFPLSVYAPASSVEYQCQNLYQLEGNKRITCRNGQWSEPPKCLHPCVISREIMENYNIALRWTAKQKLYSRTGESVEFVCKRGYRLSSRSHTLRTTCWDGKLEYPTCAKR
For B2, the Kd came to 709 nM.
